experiment: soluble fraction after stress (log2 fold change); higher = more stays soluble; pooled small domains, quantitative proteomics; details: stress: 75 degC
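Also: 20 min heating vs room temperature control held 20 min.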

Going from “HMLAERKERDKAELKELILDAAKKILLKNGQEGLSIRKIATTVEYSPATIYLYFKDKDEILHELMEMG” to “HMLAHSEFGARLRETRKRLGLSQSELGGDRYSGSYISHLESGRRAASAEVIEFLAGRLGVEVEELGM”, the “soluble fraction (log2)” value falls from 0.123 to -0.406.

First: HMLAIELDDKPGSLLRALEIFAKRNLNIEYMYAFTEKRGDKAVMIFKFSDIETAKKSLLEEGFN
Second: HMLAKNDSGLNNHTFNAIRDALLEALADGPAEAKKLTENISFPSDKIITVIRFLADHDDRFSLEDGILSLT
The “soluble fraction (log2)” value of the first is lower: -2.11 for the first, -0.738 for the second.

Compared with “HMLAKYEIIKQDIIQMIEEKKFKPGDKIYSEGELKKIYNVSSTTVVRALQDLVLSGYLIRKQGEGTYVRK”, “HMLASDYEEELSVLIKMSHKIAAGDDSLMDDFNDRVTMFESSYPINKATKDLTPVLERVNKFQT” is higher in “soluble fraction (log2)” value: -3.2 for the first, -0.908 for the second.

“HMLDDDAGMIQAILRKAPGHYLPLHDKSDPASIQAQLGISKAQFKRAVGTLMKQGLIRQVKGDGLYLTQ” and “HMLDDESLHFFYKKDGWEYWMKTTTENNYPIQLRKKIGDEKVQEYWNGDKEKKKIGASYFGV” are within 0.2 log units of each other in “soluble fraction (log2)” value: -0.271 for the first, -0.465 for the second.

First: HMLDFLVSKYESELLADLLWSLGVVAVEEREATGDLVTLRTSLGDDHSFTRELVQEKFPDVIVSTAL
Second: HMLDIVVGSTGYALGEITDHSGTVRVNGDTWTARLVDAAGPVEDGDRVEVYAVEGTTLLVYPS
The “soluble fraction (log2)” value of the first is lower: -1.74 for the first, -0.619 for the second.

Compared with “HMLDKEDNANAGKTLLERELSRAHLSDVEHRELAQRLHLASEQELYIKIGSGDLSIIQALNRAKEFKDT”, “HMLDKRSHAKKVLDAIEAVILGRATNDQLAYTINGRSLQKTPLPDLLRLRSQYQAEYQRELRAERIRKG” is lower in “soluble fraction (log2)” value: -0.0269 for the first, -0.697 for the second.

First: HMLDLPVKTINGKQYYYYTVKKGDTVYSLITRFGITRSDLVESNPAAADVLKTGDTLYFAVDKFG
Second: HMLDLYYDSEDKLLIDMGTGEVIRSFADDKRSLVFDAQAKILFDEDSGDIVYSSYFDKLITDKLASKS
The “soluble fraction (log2)” value of the first is lower: -1.19 for the first, -0.396 for the second.

Going from “HMLDPIQEGKKMLNSRLSGFGITPNTRLMNKLLAAYNISSREEFYGRIGAGIEDLSTLREVLLKGT” to “HMLDQSYYETANEIISRYPLEEKSLIPIIQDIQATYRYLPPDLLDYVAKKIGITETKAYSVASFYENFSF”, the “soluble fraction (log2)” value rises from -0.973 to -0.721.

Going from “HMLDRNKLNELDAYIESFEDKPSHLIMILHRAQGLFGYLPKELQIYVAEKTGVPAAKVYGVVTFYSFFTMK” to “HMLEDDTVNTAEGIKIGDSFAAVTKAYGTDYVAAGNTYAYSKDKMTLTFVMNNDKVSTISYSLLTS”, the “soluble fraction (log2)” value rises from -3.42 to 0.136.

Going from “HMLEDYFKEEEYTEVLKIPKEYIKGFQYYLIEDAEFVNALRAKNKTMTLFLAKKLASDYIEIIRREQ” to “HMLEIGRYNTLTVLRKVDFGYYLDGLDYGDILMPAKYAATELEAGDEVDVFIYLDSSEKLIATTETPIAQ”, the “soluble fraction (log2)” value falls from -2.39 to -4.06.

Compared with “HMLEIQENFQNILKRMELSLSPLERRVLALYLSGYERSEIPEKTGIPLKTFDNALHRVRNKMK”, “HMLEKDIGKAITILRKSYQLSISAFSMRTGYSRVHISEVESGKRKATDELISVIRNVFHLDSNWPF” is higher in “soluble fraction (log2)” value: -2.36 for the first, -1.52 for the second.

Compared with “HMLELDRTNLLGVFGSKSNPYALIMLSNGEMLKLSIGDQFLGWRVYAIDQTTVHVQNGKNQEILRIP”, “HMLELLSMEDIQRTRVGDLIATVRQVDRQHALVLDRDPETGKPAVRGIFSLSQISLRLGLNI” is lower in “soluble fraction (log2)” value: -1.36 for the first, -2.17 for the second.

“HMLEPGIAVLKTLMSQYRLGVADLPELGSKSNVSKLLNAVEGKKLTRQHIEALSKRFAVSPALF” and “HMLEPGQKVKSVVVDISGDLIYIDLGGKTEGVVELKEFYDEAGEYHVKPGDEIEVFFVSVQNGLKRFTT” are within 0.2 log units of each other in “soluble fraction (log2)” value: -0.148 for the first, -0.0603 for the second.

Compared with “HMLEQISDPEVLSKLADEVLSQQEKMVMDYRKGKTAAFQGLMGQMMKKTKGKGNPAKIQEILAQKL”, “HMLEQLTPRELKVLQALAQGRQNKEIAAQLVISERTVKFHVSAILSKLNVGNRTEAVTVAAQRGLISL” is lower in “soluble fraction (log2)” value: 0.401 for the first, -1.6 for the second.

Going from “HMLEQSYYEKTDEIIELHGAKASSLIPVMQDVQAEYRYLPGELLSYIADKLGIPLAKAYSVATFYENFS” to “HMLERKFGTSLEIKSLSKFLIENNYKKNAKYLNKLIQVLGTRSENRIIKTFFKQFPEIENIFRNQL”, the “soluble fraction (log2)” value falls from -0.282 to -0.612.

Going from “HMLETADDAKRFLGAIISEKKAENLLRVYPDIIERIVAGKPVDLSLVKGIKQKTFDKLRQKVISHYSMY” to “HMLETHRRRQIILSLLRESGMLDVDEVAARLVVSPNTIRNDFNALAAEGLLRRIRGGATLAEP”, the “soluble fraction (log2)” value falls from -0.0346 to -1.45.

Compared with “HMLFKNASGTVVSRIQSQVDGQINIRTGSGNAPDYAFVAKPDGAVELYHNGTKQFETGSSGVLLP”, “HMLFQQPATMIGKIGVAMSDLRPSGKIKIDDEWYDGQSEGDYILKGQEIIVVQVMNAYLIVRL” is higher in “soluble fraction (log2)” value: -0.406 for the first, 0.0841 for the second.

Compared with “HMLFRGNGFNTLYDKQLRITQQGEFKDGRLWDGKYYRYSKAGELVRIEIYEQGRYAGNGVITDEDKA”, “HMLFSDSDLKSLLDKDISYVIEMYKAASKEQKRIISDMVAQKVMEKKYIDANILIQLGELTGINYMDL” is lower in “soluble fraction (log2)” value: -1.06 for the first, -1.33 for the second.

Going from “HMLFSEKLKQAMQDLHLNQIQVVGLTGKSKGSISQYISGKQVPSEATQRDIAISLGLEENYFSKK” to “HMLFYSDLVRLISFAEATLGKNEFETWYMSHHQGMKYTEIAIALGISVRTVEDRIARTKNHFRKI”, the “soluble fraction (log2)” value falls from 0.701 to -0.68.

First: HMLGAGFDSDLTARENIFLNGALLGHSRAVMRGYYDDIVNFAELHDFMDVPVKNFSSGMTSRLAFSIATIG
Second: HMLGARIAALRRQAGMNQGELAKKLGISPSTVGMYEQGRREPSAEMLVRLAEAFSVSTDFLLT
The “soluble fraction (log2)” value of the first is higher: 0.236 for the first, -1.1 for the second.

First: HMLGERIRRLRKEMGMSVTELARRVKTSPSYISEIEKGEKTPSLNLLVRIASELRTGIDYLTGL
Second: HMLGIGANVQKIAQERKISLKELSRRAGIPYTTIYNMVKRDSSRVSPENLQKLADALGVEIGKLYG
The “soluble fraction (log2)” value of the first is lower: -0.922 for the first, -0.24 for the second.

Compared with “HMLGSQQAYTDALRLTGLPVDIEVIESDRLPFLIPMRYSLDQHLIEVNVRYPDTRAIRVQQMVEELFHA”, “HMLGVKKFGGEAVIAGNIILRQRGTKWITGSNVGIGKDHTLFAKIEGYVVFERMRGRDGQQQISIYP” is higher in “soluble fraction (log2)” value: -0.631 for the first, 0.0286 for the second.

Going from “HMLGYQALASAFRSKVEAGIWPIGEAIPSEARLSKEYGVAVGTIRQAIAELAEEGILIKRHGKSTMVSSG” to “HMLHEFSGVVVSILADTGPSTLKQLHRSLISSDVKMDEKELMQILDEALSSGSVTSHRKGRYLYYSANK”, the “soluble fraction (log2)” value falls from -1.49 to -1.71.

“HMLHIKKGDTVIVNAGESKGQQGKVLEVLVGKERAIVEGVNMVSKHTKPNAKNPQGGIVKKEAPIHISNLQ” and “HMLHPLLWAVDEPTPVTVRTRPEYVPDVVRWLMQPESQREHDGVVDLRYTVTHRAAFRSRIYVLGTRVTIP” are within 0.2 log units of each other in “soluble fraction (log2)” value: 0.154 for the first, 0.114 for the second.

“HMLIADADSLRKQIETVLANAPNEVAAYRGGKETLMGWFVGQIMRATGGKADPKLTREILAELLQ” and “HMLIADSDALRSQIESILNGNPNEVASFRAGKESLMGWFVGQVMRSTGGKADPKRTRELLQELLTK” are within 0.2 log units of each other in “soluble fraction (log2)” value: -0.00264 for the first, -0.0249 for the second.

Going from “HMLIDSEILKKTNKITIFLIYAFFSEYLINKEKKKILIGEYIKLSKDFLTIEEVKYFNHLLDDISK” to “HMLIDSNNYFFYKVKPKEGFYSLQKKLGVNRSEIEKHNPSLINEVLKEGMILKIPKYLLNFDLN”, the “soluble fraction (log2)” value falls from -0.131 to -1.08.

First: HMLILTWNYPYEYPMMMRSFLQEIGISRTFLAHIKSNGELLINGRHEIVLKTLQPGDVLTMVIPPSG
Second: HMLINLGPRIRKERRSKGISQSDFSKNLGISASYLNLLENGRRTLTVPLLIKIGNELNLSLKDL
The “soluble fraction (log2)” value of the first is lower: -2.13 for the first, -0.125 for the second.

For “HMLISAESVKRRLEMIRHLILLGDYEDVTAQVIKLNPAANEYKLTPIIEELNGGKYQEALEKINSYLSKF”, the “soluble fraction (log2)” value was -0.839.

From the domain aggregation screens of Martell et al. (2025)
